From patent publication US20200040101A1 come the findings set out here.

For test [1], the target named is CLDN18.1 expressed on HEK 293 cells (UniProt P56856). The test is described as follows: FACS, secondary antibody alone on HEK 293 cells expressing CLDN 18.1. On the technique in general: In flow cytometry, cells or beads pass a laser one at a time.
The target of test [2] is human Claudin 18.2 (CLDN18.2) expressed on cells (human) (UniProt P56856). The test is described as follows: FACS, secondary antibody alone on HEK 293 cells expressing CLDN 18.2.

With Sec. antibody, the MFI was 18 in test [1] and 53 in test [2].
